Experimental data published in patent US20180170995A1 (LEVICEPT, published 2018).
One block for each binder: values may come before it.

Biological target: TrkB receptor (UniProt Q16620 32-822, limits assumed)
Test: cell-based or functional assay

Chain of TrkB receptor (Q16620 32-822 limits assumed): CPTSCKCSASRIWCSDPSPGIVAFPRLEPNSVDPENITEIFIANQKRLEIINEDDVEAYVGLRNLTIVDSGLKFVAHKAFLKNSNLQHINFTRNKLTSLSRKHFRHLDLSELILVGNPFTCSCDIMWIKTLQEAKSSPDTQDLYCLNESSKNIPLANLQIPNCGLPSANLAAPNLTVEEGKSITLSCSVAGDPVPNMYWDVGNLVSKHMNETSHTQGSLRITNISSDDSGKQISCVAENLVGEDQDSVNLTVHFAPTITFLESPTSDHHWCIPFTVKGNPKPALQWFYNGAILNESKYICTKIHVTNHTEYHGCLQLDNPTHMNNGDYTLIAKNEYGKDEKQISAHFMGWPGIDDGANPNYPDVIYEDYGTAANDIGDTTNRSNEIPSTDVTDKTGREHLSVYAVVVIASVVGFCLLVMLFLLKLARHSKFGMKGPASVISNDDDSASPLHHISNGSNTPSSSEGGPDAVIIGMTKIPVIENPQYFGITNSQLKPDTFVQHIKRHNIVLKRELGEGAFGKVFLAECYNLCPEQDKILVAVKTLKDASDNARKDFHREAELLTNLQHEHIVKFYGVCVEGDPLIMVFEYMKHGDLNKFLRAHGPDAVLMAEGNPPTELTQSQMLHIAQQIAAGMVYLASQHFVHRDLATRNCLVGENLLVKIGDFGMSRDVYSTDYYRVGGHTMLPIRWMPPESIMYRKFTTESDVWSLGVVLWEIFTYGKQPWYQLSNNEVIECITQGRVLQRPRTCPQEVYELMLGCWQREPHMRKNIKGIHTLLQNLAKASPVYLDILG

EC50, BDNF-induced activation of TrkB (luminescence, DiscoverX kit cells): 0.7 nM
B1: brain-derived neurotrophic factor (BDNF) (ligand, UniProt P23560 129-247, looked up)
chain: HSDPARRGELSVCDSISEWVTAADKKTAVDMSGGTVTVLEKVPVSKGQLKQYFYETKCNPMGYTKEGCRGIDKRHWNSQCRTTQSYVRALTMDSKKRIGWRFIRIDTSCVCTLTIKRGR

EC50, NT-4-induced activation of TrkB (luminescence, DiscoverX kit cells): 0.012 nM
B2: neurotrophin-4 (NT-4) (ligand, UniProt P34130 81-210, looked up)
chain: GVSETAPASRRGELAVCDAVSGWVTDRRTAVDLRGREVEVLGEVPAAGGSPLRQYFFETRCKADNAEEGGPGAGGGGCRGVDRRHWVSECKAKQSYVRALTADAQGRVGWRWIRIDTACVCTLLSRTGRA
